Data published in PMC11374677 (Nature, 2024).

Molecular target: SARS-CoV-2 non-structural protein 3 (nsp3), TwinStrep-EGFP tagged, wild type (SARS-CoV-2 (Wuhan-Hu-1), UniProt P0DTD1)
Assay: […]

B1: SARS-CoV-2 non-structural protein 4 (nsp4), wild type (natural protein)
chain: KIVNNWLKQLIKVTLVFLFVAAIFYLITPVHVMSKHTDFSSEIIGYKAIDGGVTRDIASTDTCFANKHADFDTWFSQRGGSYTNDKACPLIAAVITREVGFVVPGLPGTILRTTNGDFLHFLPRVFSAVGNICYTPSKLIEYTDFATSACVLAAECTIFKDASGKPVPYCYDTNVLEGSVAYESLRPDTRYVLMDGSIIQFPNTYLEGSVRVVTTFDSEYCRHGTCERSEAGVCVSTSGRWVLNNDYYRSLPGVFCGVDAVNLLTNMFTPLIQPIGALDISASIVAGGIVAIVVTCLAYYFMRFRRAFGEYSHVVAFNTLLFLMSFTVLCLTPVYSFLPGVYSVIYLYLTFYLTNDVSFLAHIQWMVMFTPLVPFWITIAYIICISTKHFYWFFSNYLKRRVVFNGVSFSTFEEAALCTFLLNKEMYLKLRSDVLLPLTQYNRYLALYNKYKYFSGAMDTTSYREAACCHLAKALNDFSNSGSDVLYQPPQTSITSAVLQ
For B1, which “stoichiometry N” value is on record?
Its value is 1 ratio nsp4:nsp3 (12:12 in the complex).
